This assay addresses AtMIN7-HA (Arabidopsis thaliana, UniProt F4IXW2 1-1739). The assay is described as follows: transient co-expression in N. benthamiana leaves, pull-down and immunoblot.

AtMIN7-HA, sequence (F4IXW2 other isoform, or with tags, fused parts or gaps limits assumed): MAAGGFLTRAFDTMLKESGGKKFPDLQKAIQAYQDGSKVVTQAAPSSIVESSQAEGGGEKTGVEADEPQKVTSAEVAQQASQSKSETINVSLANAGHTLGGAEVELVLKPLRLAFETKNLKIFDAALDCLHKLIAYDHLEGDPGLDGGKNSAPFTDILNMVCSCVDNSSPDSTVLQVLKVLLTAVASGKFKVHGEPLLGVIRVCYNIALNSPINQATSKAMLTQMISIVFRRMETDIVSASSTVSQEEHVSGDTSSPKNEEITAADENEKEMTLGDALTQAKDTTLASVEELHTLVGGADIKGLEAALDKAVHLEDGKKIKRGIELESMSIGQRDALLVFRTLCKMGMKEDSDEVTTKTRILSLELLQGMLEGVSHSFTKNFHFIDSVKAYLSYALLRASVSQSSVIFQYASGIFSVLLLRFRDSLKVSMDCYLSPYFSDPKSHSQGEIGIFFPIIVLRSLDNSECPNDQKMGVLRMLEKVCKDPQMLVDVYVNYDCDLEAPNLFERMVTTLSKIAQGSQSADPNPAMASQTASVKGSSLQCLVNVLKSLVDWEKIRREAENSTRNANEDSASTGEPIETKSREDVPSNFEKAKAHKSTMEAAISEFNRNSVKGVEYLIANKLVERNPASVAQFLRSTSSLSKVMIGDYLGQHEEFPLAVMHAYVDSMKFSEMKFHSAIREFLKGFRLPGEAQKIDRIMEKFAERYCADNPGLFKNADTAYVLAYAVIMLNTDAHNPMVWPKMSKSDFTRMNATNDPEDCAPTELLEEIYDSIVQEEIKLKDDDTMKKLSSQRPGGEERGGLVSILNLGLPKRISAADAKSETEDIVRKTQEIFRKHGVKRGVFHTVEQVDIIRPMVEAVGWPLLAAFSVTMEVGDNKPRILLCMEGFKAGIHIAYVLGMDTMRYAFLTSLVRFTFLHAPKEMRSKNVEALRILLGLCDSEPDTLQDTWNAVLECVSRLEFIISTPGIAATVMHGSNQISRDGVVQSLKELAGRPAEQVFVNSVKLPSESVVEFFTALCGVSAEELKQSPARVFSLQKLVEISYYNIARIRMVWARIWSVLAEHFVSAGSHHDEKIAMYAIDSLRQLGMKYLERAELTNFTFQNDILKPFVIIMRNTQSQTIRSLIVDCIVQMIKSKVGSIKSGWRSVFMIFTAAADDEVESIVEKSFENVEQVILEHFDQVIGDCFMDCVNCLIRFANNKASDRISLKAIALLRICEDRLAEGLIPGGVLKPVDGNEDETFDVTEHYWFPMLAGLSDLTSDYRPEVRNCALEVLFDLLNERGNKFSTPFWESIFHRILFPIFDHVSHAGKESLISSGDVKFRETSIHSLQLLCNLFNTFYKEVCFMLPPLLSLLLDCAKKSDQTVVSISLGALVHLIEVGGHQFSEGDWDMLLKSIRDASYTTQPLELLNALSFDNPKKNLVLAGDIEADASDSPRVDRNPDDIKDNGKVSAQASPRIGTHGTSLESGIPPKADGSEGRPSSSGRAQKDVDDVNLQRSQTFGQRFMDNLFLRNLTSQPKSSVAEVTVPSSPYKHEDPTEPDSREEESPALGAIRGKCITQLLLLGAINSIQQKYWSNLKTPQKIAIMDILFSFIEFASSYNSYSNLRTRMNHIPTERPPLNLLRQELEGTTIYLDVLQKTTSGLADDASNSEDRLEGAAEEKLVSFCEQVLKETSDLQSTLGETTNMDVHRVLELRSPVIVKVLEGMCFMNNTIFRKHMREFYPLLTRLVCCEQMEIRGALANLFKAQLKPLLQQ

B1: 6×His-HopM1 1-300 (other)
chain: MISSRIGGAGGVELSRVNQQHDTVPAQTAHPNAVTAGMNPPLTPDQSGSHATESSSAGAARLNVAARHTQLLQAFKAEHGTAPVSGAPMISSRAALLIGSLLQAEPLPFEVMAEKLSPERYQLKQFQGSDLQQRLEKFAQPGQIPDKAEVGQLIKGFAQSVADQLEHFQLMHDASPATVGQHAKADKATLAVSQTALGEYAGRASKAIGEGLSNSIASLDEHISALDLTLQDAEQGNKESLHADRQALVDAKTTLVGLHADFVKSPEAKRLASVAAHTQLDNVVSDLVTARNTVGGWKGA
notes: also called HopM1-300
Regarding B1, the binding result is given as “binds”.
